Activity data for five sequences are collected here from patent publication US20220396813.

Assay in all cases: cell_activity
The test system of one data set is T1, Rec19 WP_058958135.1.
T1 sequence: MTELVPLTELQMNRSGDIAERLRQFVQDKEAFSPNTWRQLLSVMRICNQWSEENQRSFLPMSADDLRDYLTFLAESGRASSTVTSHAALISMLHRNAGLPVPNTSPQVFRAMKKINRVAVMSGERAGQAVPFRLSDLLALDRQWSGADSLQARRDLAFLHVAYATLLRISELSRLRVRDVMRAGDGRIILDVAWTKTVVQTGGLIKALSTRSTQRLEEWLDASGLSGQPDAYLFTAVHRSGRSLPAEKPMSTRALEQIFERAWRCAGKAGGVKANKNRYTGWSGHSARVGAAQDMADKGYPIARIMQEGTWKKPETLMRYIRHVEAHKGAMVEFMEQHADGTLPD
As to conditions: HEK293T inversion; background 0.0065.

The test system of data set [1] is T2, Rec20 WP_090967054.1 (Pantoea sp. OV426).
T2 sequence: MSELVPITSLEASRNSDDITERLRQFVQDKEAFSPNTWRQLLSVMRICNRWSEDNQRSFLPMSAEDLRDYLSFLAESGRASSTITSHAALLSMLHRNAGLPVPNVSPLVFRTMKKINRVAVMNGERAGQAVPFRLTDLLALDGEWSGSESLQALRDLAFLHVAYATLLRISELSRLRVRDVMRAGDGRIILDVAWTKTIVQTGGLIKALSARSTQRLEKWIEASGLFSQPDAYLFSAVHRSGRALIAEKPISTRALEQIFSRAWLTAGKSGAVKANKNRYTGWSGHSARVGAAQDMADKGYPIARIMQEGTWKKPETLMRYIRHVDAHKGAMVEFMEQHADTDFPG
As to conditions: HEK293T inversion; background 4.93.

Data set [2] relates to T3, Rec29 WP_089415106.1 (Pantoea agglomerans).
T3 sequence: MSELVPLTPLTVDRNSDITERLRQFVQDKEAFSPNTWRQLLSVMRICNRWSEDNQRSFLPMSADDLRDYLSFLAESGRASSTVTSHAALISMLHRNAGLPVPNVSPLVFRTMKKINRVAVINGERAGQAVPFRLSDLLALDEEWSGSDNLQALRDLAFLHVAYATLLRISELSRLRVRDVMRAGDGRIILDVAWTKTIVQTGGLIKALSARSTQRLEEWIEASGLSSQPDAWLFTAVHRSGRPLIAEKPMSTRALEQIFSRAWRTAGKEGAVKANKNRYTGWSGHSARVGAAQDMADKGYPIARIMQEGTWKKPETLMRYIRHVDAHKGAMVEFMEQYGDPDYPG
The settings on record: HEK293T inversion; background 1.305.

The subject of the next data set is Rec83. As to conditions: HEK293T inversion; background 5.425.
The subject of the next data set is Rec82. As to conditions: HEK293T inversion; background 5.03.
In data set [3] the test system is T4, Rec35 WP_134161939.1 (Pantoea allii).
T4 sequence: T3 sequence with L10Q, S135T, E142K, S145A, A210T, L225I, A231V, A254S, G339S
As to conditions: HEK293T inversion; background 6.6.

For data set [4], the system named is T5, Rec38 WP_115764642.1 (Pantoea agglomerans).
T5 sequence: T3 sequence with T11M, S135T, E142K, S145A, D148E, A152S, A210T, L225I, A254S, G339S
As to conditions: HEK293T inversion; background 6.6.

The test system of data set [5] is T6, Rec36 WP_111534863.1 (Pantoea sp.).
T6 sequence: T3 sequence with G345D
As to conditions: HEK293T inversion; background 6.6.

The subject of data set [6] is T7, Rec31 WP_046103089.1 (Pantoea anthophila).
T7 sequence: T1 sequence with S135T, G341D, T342A
As to conditions: HEK293T inversion; background 1.305.

The subject of data set [7] is T8, Rec37 WP_128085508.1 (Pantoea deleyi).
T8 sequence: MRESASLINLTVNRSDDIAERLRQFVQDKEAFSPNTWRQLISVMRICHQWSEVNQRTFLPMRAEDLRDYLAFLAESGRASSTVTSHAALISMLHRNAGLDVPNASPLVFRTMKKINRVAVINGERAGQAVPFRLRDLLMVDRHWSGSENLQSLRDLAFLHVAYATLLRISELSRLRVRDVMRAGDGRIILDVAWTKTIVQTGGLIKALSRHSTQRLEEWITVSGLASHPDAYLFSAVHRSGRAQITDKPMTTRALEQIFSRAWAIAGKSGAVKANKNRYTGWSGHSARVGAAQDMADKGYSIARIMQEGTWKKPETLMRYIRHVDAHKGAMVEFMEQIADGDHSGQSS
The settings on record: HEK293T inversion; background 6.6.

The subject of data set [8] is T9, Rec32 WP_069027120.1 (Pantoea agglomerans).
T9 sequence: T3 sequence with R49C, E75Q, S135T, E142K, S145A, A210T, L225I, L244Q, A254S, G339S
The settings on record: HEK293T inversion; background 6.6.

Data set [9] deals with T10, Rec33 WP_010671927.1 (Pantoea sp.).
T10 sequence: T3 sequence with E142K
The settings on record: HEK293T inversion; background 6.6.

The test system of data set [10] is T11, Rec30 WP_022624268.1 (Pantoea sp.).
T11 sequence: T3 sequence with G98E, E142K
The settings on record: HEK293T inversion; background 1.305.

For data set [11], the system named is T12, Rec39 WP_111138305.1 (Pantoea sp. ARC607).
T12 sequence: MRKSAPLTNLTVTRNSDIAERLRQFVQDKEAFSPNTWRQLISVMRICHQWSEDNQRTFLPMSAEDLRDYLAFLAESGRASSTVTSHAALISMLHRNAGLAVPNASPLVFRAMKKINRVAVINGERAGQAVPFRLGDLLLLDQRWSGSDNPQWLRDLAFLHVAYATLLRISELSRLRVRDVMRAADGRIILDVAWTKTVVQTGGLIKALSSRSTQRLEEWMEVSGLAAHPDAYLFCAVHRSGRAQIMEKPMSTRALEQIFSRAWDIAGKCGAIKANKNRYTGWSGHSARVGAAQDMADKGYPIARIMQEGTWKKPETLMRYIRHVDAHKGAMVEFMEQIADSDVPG
As to conditions: HEK293T inversion; background 6.6.

Data set [12] concerns T13, Rec34 WP_109653747.1 (Pantoea agglomerans).
T13 sequence: T3 sequence with S135T, E142K, S145A, A210T, L225I, A254S, G339S
As to conditions: HEK293T inversion; background 6.6.

A further data set addresses T14, Rec142 (UniProt A0A0J6VB22).
T14 sequence: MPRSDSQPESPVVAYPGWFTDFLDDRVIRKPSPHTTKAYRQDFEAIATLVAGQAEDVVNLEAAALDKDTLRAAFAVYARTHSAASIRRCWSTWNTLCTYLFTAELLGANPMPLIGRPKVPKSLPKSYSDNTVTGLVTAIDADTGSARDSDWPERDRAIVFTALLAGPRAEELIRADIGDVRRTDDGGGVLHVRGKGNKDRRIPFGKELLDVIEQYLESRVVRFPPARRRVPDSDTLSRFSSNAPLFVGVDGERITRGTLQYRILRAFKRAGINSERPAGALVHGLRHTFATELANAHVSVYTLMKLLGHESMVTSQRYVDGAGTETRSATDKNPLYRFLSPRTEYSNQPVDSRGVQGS
As to conditions: HEK293T inversion; background 4.4.

Numbering of substitutions follows the chain as printed.

As to “TGACTTCGTATANNNNNNNNTATACGAAGCCA (double strand) [Rec19-20 natural site]”, the activity in the data set with Rec19 WP_058958135.1 amounted to 63.6 % GFP+; in [1], 70.7 % GFP+.
In turn, “ATGACTTCGTATANNNNNNNNTATACGAAGTCAT (double strand) [Rec29 natural site]” registered an activity in data set [2] of 36.9 % GFP+.
As for “TGTGACTCCAGANNNNNNNNNTCTGGAGTCATA (double strand) [Rec82-83 natural site]”, the activity in the data set on Rec83 came out at 65.2 % GFP+; in the data set on Rec82 it was 59 % GFP+.
As for “TGACTTCGTATANNNNNNNNTATACGAAGTCA (double strand) [Rec30-39 natural site]”, the activity in [3] came out at 52 % GFP+; in data set [4], 44.5 % GFP+; in [5], 44.2 % GFP+; in [6], 21.3 % GFP+; in data set [7], 40 % GFP+; in data set [8], 60 % GFP+. In addition, the activity in data set [9] is 51 % GFP+; in [10], 32.1 % GFP+; in data set [11] it was 42 % GFP+; in data set [12] it was 50.6 % GFP+.
Turning to “CCGTCATGGATANNNNNNNNTATCCATGAAGC (double strand) [Rec142 natural site]”, in the data set with Rec142, the activity stood at 20.2 % GFP+.
